B1: XPA23 light chain S53T (Fab, V domains shown)
VH: EVQLLESGGGLVQPGGSLRLSCAASGFTFSKYFMFWVRQAPGKGLEWVSVISPSGGMTRYADSVKGRFTISRDNSKNTLYLQMNSLRAEDTAVYYCARVGYGGNSDYWGQGTLVTVSS
VL: DIQMTQSPSSVSASVGDRLTIICRASQDINRWLAWYQQTPGNAPKLLIHSATTLQSGVPSRFSGSGSGTDFTLTINSLQPEDFATYYCQQADSFPLTFGGGTKVEIK
notes: Single light chain substitution; Fab in periplasmic extract; also called C5A (XPA23) S53T
B2: XPA23 light chain S53A (Fab, V domains shown)
VH: B1 VH
VL: B1 VL with T53A
notes: Single light chain substitution; Fab in periplasmic extract; also called C5A (XPA23) S53A
B3: XPA23 light chain S93P (Fab, V domains shown)
VH: B1 VH
VL: B1 VL with T53S, S93P
notes: Single light chain substitution; Fab in periplasmic extract; also called C5A (XPA23) S93P
B4: XPA23 light chain D92P (Fab, V domains shown)
VH: B1 VH
VL: B1 VL with T53S, D92P
notes: Single light chain substitution; Fab in periplasmic extract; also called C5A (XPA23) D92P
B5: XPA23 light chain S53L (Fab, V domains shown)
VH: B1 VH
VL: B1 VL with T53L
notes: Single light chain substitution; Fab in periplasmic extract; also called C5A (XPA23) S53L
B6: XPA23 light chain F94A (Fab, V domains shown)
VH: B1 VH
VL: B1 VL with T53S, F94A
notes: Single light chain substitution; Fab in periplasmic extract; also called C5A (XPA23) F94A
B7: XPA23 light chain D92V (Fab, V domains shown)
VH: B1 VH
VL: B1 VL with T53S, D92V
notes: Single light chain substitution; Fab in periplasmic extract; also called C5A (XPA23) D92V
B8: XPA23 light chain P95I (Fab, V domains shown)
VH: B1 VH
VL: B1 VL with T53S, P95I
notes: Single light chain substitution; Fab in periplasmic extract; also called C5A (XPA23) P95I
B9: XPA23 light chain F94P (Fab, V domains shown)
VH: B1 VH
VL: B1 VL with T53S, F94P
notes: Single light chain substitution; Fab in periplasmic extract; also called C5A (XPA23) F94P
B10: XPA23 light chain F94I (Fab, V domains shown)
VH: B1 VH
VL: B1 VL with T53S, F94I
notes: Single light chain substitution; Fab in periplasmic extract; also called C5A (XPA23) F94I
B11: XPA23 light chain A91I (Fab, V domains shown)
VH: B1 VH
VL: B1 VL with T53S, A91I
notes: Single light chain substitution; Fab in periplasmic extract; also called C5A (XPA23) A91I
B12: XPA23 light chain P95T (Fab, V domains shown)
VH: B1 VH
VL: B1 VL with T53S, P95T
notes: Single light chain substitution; Fab in periplasmic extract; also called C5A (XPA23) P95T
B13: XPA23 light chain S53G (Fab, V domains shown)
VH: B1 VH
VL: B1 VL with T53G
notes: Single light chain substitution; Fab in periplasmic extract; also called C5A (XPA23) S53G
B14: XPA23 light chain A91T (Fab, V domains shown)
VH: B1 VH
VL: B1 VL with T53S, A91T
notes: Single light chain substitution; Fab in periplasmic extract; also called C5A (XPA23) A91T
B15: XPA23 light chain F94V (Fab, V domains shown)
VH: B1 VH
VL: B1 VL with T53S, F94V
notes: Single light chain substitution; Fab in periplasmic extract; also called C5A (XPA23) F94V
B16: XPA23 light chain L96G (Fab, V domains shown)
VH: B1 VH
VL: B1 VL with T53S, L96G
notes: Single light chain substitution; Fab in periplasmic extract; also called C5A (XPA23) L96G
B17: XPA23 light chain L96I (Fab, V domains shown)
VH: B1 VH
VL: B1 VL with T53S, L96I
notes: Single light chain substitution; Fab in periplasmic extract; also called C5A (XPA23) L96I
B18: XPA23 light chain P95L (Fab, V domains shown)
VH: B1 VH
VL: B1 VL with T53S, P95L
notes: Single light chain substitution; Fab in periplasmic extract; also called C5A (XPA23) P95L
B19: XPA23 light chain F94L (Fab, V domains shown)
VH: B1 VH
VL: B1 VL with T53S, F94L
notes: Single light chain substitution; Fab in periplasmic extract; also called C5A (XPA23) F94L
B20: XPA23 light chain A91G (Fab, V domains shown)
VH: B1 VH
VL: B1 VL with T53S, A91G
notes: Single light chain substitution; Fab in periplasmic extract; also called C5A (XPA23) A91G
B21: XPA23 light chain P95V (Fab, V domains shown)
VH: B1 VH
VL: B1 VL with T53S, P95V
notes: Single light chain substitution; Fab in periplasmic extract; also called C5A (XPA23) P95V
B22: XPA23 light chain L96A (Fab, V domains shown)
VH: B1 VH
VL: B1 VL with T53S, L96A
notes: Single light chain substitution; Fab in periplasmic extract; also called C5A (XPA23) L96A
B23: XPA23 light chain F94G (Fab, V domains shown)
VH: B1 VH
VL: B1 VL with T53S, F94G
notes: Single light chain substitution; Fab in periplasmic extract; also called C5A (XPA23) F94G
B24: XPA23 light chain S93I (Fab, V domains shown)
VH: B1 VH
VL: B1 VL with T53S, S93I
notes: Single light chain substitution; Fab in periplasmic extract; also called C5A (XPA23) S93I
B25: XPA23 light chain D92L (Fab, V domains shown)
VH: B1 VH
VL: B1 VL with T53S, D92L
notes: Single light chain substitution; Fab in periplasmic extract; also called C5A (XPA23) D92L
B26: XPA23 light chain S93G (Fab, V domains shown)
VH: B1 VH
VL: B1 VL with T53S, S93G
notes: Single light chain substitution; Fab in periplasmic extract; also called C5A (XPA23) S93G
B27: XPA23 light chain P95G (Fab, V domains shown)
VH: B1 VH
VL: B1 VL with T53S, P95G
notes: Single light chain substitution; Fab in periplasmic extract; also called C5A (XPA23) P95G
B28: XPA23 light chain D92I (Fab, V domains shown)
VH: B1 VH
VL: B1 VL with T53S, D92I
notes: Single light chain substitution; Fab in periplasmic extract; also called C5A (XPA23) D92I
B29: XPA23 light chain P95A (Fab, V domains shown)
VH: B1 VH
VL: B1 VL with T53S, P95A
notes: Single light chain substitution; Fab in periplasmic extract; also called C5A (XPA23) P95A
B30: XPA23 light chain S93A (Fab, V domains shown)
VH: B1 VH
VL: B1 VL with T53S, S93A
notes: Single light chain substitution; Fab in periplasmic extract; also called C5A (XPA23) S93A
B31: XPA23 light chain F94T (Fab, V domains shown)
VH: B1 VH
VL: B1 VL with T53S, F94T
notes: Single light chain substitution; Fab in periplasmic extract; also called C5A (XPA23) F94T
B32: XPA23 light chain A91P (Fab, V domains shown)
VH: B1 VH
VL: B1 VL with T53S, A91P
notes: Single light chain substitution; Fab in periplasmic extract; also called C5A (XPA23) A91P
B33: XPA23 light chain D92G (Fab, V domains shown)
VH: B1 VH
VL: B1 VL with T53S, D92G
notes: Single light chain substitution; Fab in periplasmic extract; also called C5A (XPA23) D92G
B34: XPA23 light chain L96T (Fab, V domains shown)
VH: B1 VH
VL: B1 VL with T53S, L96T
notes: Single light chain substitution; Fab in periplasmic extract; also called C5A (XPA23) L96T
B35: XPA23 light chain S53V (Fab, V domains shown)
VH: B1 VH
VL: B1 VL with T53V
notes: Single light chain substitution; Fab in periplasmic extract; also called C5A (XPA23) S53V
B36: XPA23 light chain D92T (Fab, V domains shown)
VH: B1 VH
VL: B1 VL with T53S, D92T
notes: Single light chain substitution; Fab in periplasmic extract; also called C5A (XPA23) D92T
B37: XPA23 light chain S53P (Fab, V domains shown)
VH: B1 VH
VL: B1 VL with T53P
notes: Single light chain substitution; Fab in periplasmic extract; also called C5A (XPA23) S53P
B38: XPA23 light chain D92A (Fab, V domains shown)
VH: B1 VH
VL: B1 VL with T53S, D92A
notes: Single light chain substitution; Fab in periplasmic extract; also called C5A (XPA23) D92A
B39: XPA23 light chain L96P (Fab, V domains shown)
VH: B1 VH
VL: B1 VL with T53S, L96P
notes: Single light chain substitution; Fab in periplasmic extract; also called C5A (XPA23) L96P
B40: XPA23 light chain A91L (Fab, V domains shown)
VH: B1 VH
VL: B1 VL with T53S, A91L
notes: Single light chain substitution; Fab in periplasmic extract; also called C5A (XPA23) A91L
B41: XPA23 light chain S93L (Fab, V domains shown)
VH: B1 VH
VL: B1 VL with T53S, S93L
notes: Single light chain substitution; Fab in periplasmic extract; also called C5A (XPA23) S93L
B42: XPA23 light chain A91V (Fab, V domains shown)
VH: B1 VH
VL: B1 VL with T53S, A91V
notes: Single light chain substitution; Fab in periplasmic extract; also called C5A (XPA23) A91V
B43: XPA23 light chain S53I (Fab, V domains shown)
VH: B1 VH
VL: B1 VL with T53I
notes: Single light chain substitution; Fab in periplasmic extract; also called C5A (XPA23) S53I

Changes are numbered by the printed parent chain. Names and notes keep the numbering of the source.

The target in this assay is IL-1β (UniProt P01584 117-269). The assay can be described thus: Biacore, Fab periplasmic extract on IL-1β.
For the molecule B1, the “fold difference in affinity vs original” value was 0.95 fold.
As for B2, the “fold difference in affinity vs original” value was 1.07 fold.
For the molecule B3, the binding result was “no binding”.
Same read-out and setting: the result for B4 reads “no binding”.
As for B5, the “fold difference in affinity vs original” value is 0.99 fold.
For the molecule B6, the binding result is recorded as “no binding”.
On the same count and under the same terms, for B7 the value was “no binding”.
The same measure, in the same setting: the result for B8 reads “no binding”.
For the molecule B9, the “fold difference in affinity vs original” value stood at 0.17 fold.
In the case of B10, the “fold difference in affinity vs original” value stood at 0.88 fold.
For the molecule B11, the binding result is on record as “no binding”.
In the case of B12, the binding result is listed as “no binding”.
Consider B13, for which the “fold difference in affinity vs original” value was found to be 1.03 fold.
Take B14: the “fold difference in affinity vs original” value worked out at 0.67 fold.
In the case of B15, the “fold difference in affinity vs original” value was 0.2 fold.
For the molecule B16, the binding result was “no binding”.
Consider B17, for which the “fold difference in affinity vs original” value worked out at 0.67 fold.
Take B18: the binding result is on record as “no binding”.
As for B19, the “fold difference in affinity vs original” value was found to be 0.55 fold.
For B20, the binding result is recorded as “no binding”.
Same read-out and setting: the result for B21 reads “no binding”.
As for B22, the “fold difference in affinity vs original” value came to 0.26 fold.
Regarding B23, the binding result is listed as “no binding”.
Turning to B24, the “fold difference in affinity vs original” value was determined as 1.35 fold.
On the same count and under the same terms, for B25 the value was 0.14 fold; for B26, 0.75 fold.
As to B27, the binding result is “no binding”.
Take B28: the “fold difference in affinity vs original” value is 0.33 fold.
Still for that read-out and setting: the result for B29 reads 3.83 fold; that for B30, 1.16 fold.
As for B31, the binding result is “no binding”.
For the molecule B32, the binding result was “no binding”.
Consider B33, for which the “fold difference in affinity vs original” value was determined as 0.26 fold.
Still for that read-out and setting: the result for B34 reads 0.06 fold; that for B35, 1.42 fold; that for B36, 0.34 fold.
Turning to B37, the “fold difference in affinity vs original” value came to 4.92 fold.
For the molecule B38, the “fold difference in affinity vs original” value was determined as 0.4 fold.
As for B39, the binding result is reported as “no binding”.
Consider B40, for which the “fold difference in affinity vs original” value came to 0.39 fold.
Still for that read-out and setting: the result for B41 reads 1.08 fold.
Same read-out and setting: for B42 the value was 0.51 fold; for B43, 1.42 fold.

The record behind these values is US20110118131A1 (published 2011).
